The target in one assay is T1, VanRSc (Streptomyces coelicolor, UniProt Q8CJW1).
T1 construct: gene SCO3590
The following applies: BeF3- formed from BeSO4 and NaF; Mg2+ present; phosphomimetic bound to Asp51 in the receiver domain; crystals at pH 7, room temperature.

The target in assay [1] is full-length VanR from Streptomyces coelicolor, activated state (beryllium fluoride bound at Asp51) (Streptomyces coelicolor). Nature of the assay: crystal structure; activated VanRSc co-crystallized with beryllium fluoride, microbatch under oil, 2.5 M NaCl, 0.1 M Tris pH 7, 0.2 M MgCl2, room temperature; monomer in the asymmetric unit, dimer by crystal symmetry.
The target of assay [2] is T2, full-length VanR from Streptomyces coelicolor, inactive (unphosphorylated) state (Streptomyces coelicolor).
T2 chain: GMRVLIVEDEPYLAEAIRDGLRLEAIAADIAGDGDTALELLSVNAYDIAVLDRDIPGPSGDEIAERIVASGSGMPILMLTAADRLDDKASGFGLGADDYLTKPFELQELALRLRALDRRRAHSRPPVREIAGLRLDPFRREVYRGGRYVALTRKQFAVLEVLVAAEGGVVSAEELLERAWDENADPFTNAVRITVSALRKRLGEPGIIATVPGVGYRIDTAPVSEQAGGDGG
The assay can be described thus: AUC; sedimentation equilibrium, 4°C, 18 000, 20 000 and 22 000 rev/min, without beryllium fluoride; global fit, monomer-dimer model (dimer to monomers). To be noted: both partners purified.

The target in assay [3] is T2, full-length VanR from Streptomyces …. Nature of the assay: AUC; sedimentation velocity, 20°C, 50 mM Tris pH 7.5, 50 mM NaCl, 10 mM MgCl2, without beryllium fluoride; 36.5 µM monomer; monomer-dimer model (dimer to monomers). The following applies: both partners purified.

This is an account of results in paper PMC8329863 (Acta Crystallographica. Section D, Structural Biology, 2021).

`[F][Be-]([F])[F]` [beryllium fluoride]: on VanRSc, the “X-ray crystallography, 2.03 A co-crystal structure” value is listed as “The Be atom is bound to one of the carboxylate O atoms of Asp51”. “full-length VanR from Streptomyces coelicolor, activated state (beryllium fluoride bound at Asp51) (natural protein)”: the stoichiometry N – broadly, the number of molecules, sites or subunits per partner or assembly – in assay [1] was 2.

B1: full-length VanR from Streptomyces coelicolor, inactive (unphosphorylated) state (natural protein)
chain: GMRVLIVEDEPYLAEAIRDGLRLEAIAADIAGDGDTALELLSVNAYDIAVLDRDIPGPSGDEIAERIVASGSGMPILMLTAADRLDDKASGFGLGADDYLTKPFELQELALRLRALDRRRAHSRPPVREIAGLRLDPFRREVYRGGRYVALTRKQFAVLEVLVAAEGGVVSAEELLERAWDENADPFTNAVRITVSALRKRLGEPGIIATVPGVGYRIDTAPVSEQAGGDGG
modifications: unphosphorylated at Asp51 (paper numbering; entity position 52), no beryllium fluoride; Mg2+ present (10 mM MgCl2 in AUC). Wild-type residues 1-231 plus the N-terminal Gly left after SUMO cleavage. …
For the molecule B1, the Kd (as a rule, the constant that tells how readily two partners part at equilibrium) was 37 µM in assay [2] and > 1000 µM in assay [3].
